Data taken from article PMC8497620, “Structure and inhibition of Cryptococcus neoformans sterylglucosidase to develop antifungal agents” (Nature Communications, 2021).

What follows are substances tested against C. neoformans Sgl1 (Cryptococcus neoformans var. grubii, UniProt J9W473) (assay: H/D exchange mass spectrometry mapping of disordered regions). Conditions: H/D exchange MS of C. neoformans Sgl1; per peptide (amino acids Start-End, Sequence); Fig S2a.
Experimental: HDX-MS reactions were performed in a similar manner as is outlined in previous publications. HDX reactions were conducted in a final reaction volume of 50 µL with a final Sgl1 concentration of 0.6 µM (30 pmol). Exchange was carried out in triplicate for a single time point (3 s at 4 °C). Hydrogen deuterium exchange was initiated by the addition of 48 µL of D2O buffer (100 mM NaCl (20 mM pH 6.0 Bis-Tris), 90.5% D2O (V/V) to 1 µL of protein and 1 µL of H2O. Exchange was terminated by the addition of ice-cold acidic quench buffer, resulting in a final concentration of 0.6 M guanidine-HCl and 0.9% FA post quench. Samples were immediately frozen in liquid nitrogen and stored at −80 °C. Fully deuterated samples were generated by first denaturing the protein in 2 M guanidine for 5 min at 20 °C. Following denaturing, 48 µL of D2O buffer was added to the denatured protein and allowed to incubate for 5 min at 20 °C before quenching. Samples were flash frozen and stored at −80 °C until injection onto the ultra-performance liquid chromatography (UPLC) system for proteolytic cleavage, peptide separation, and injection onto a QTOF for mass analysis.
Protein sample was rapidly thawed and injected onto a UPLC system kept in a cold box at 2 °C. The protein was run over two immobilized pepsin columns (Applied Biosystems; Porosyme 2-3131-00) and the peptides were collected onto a VanGuard Precolumn trap (Waters). The trap was eluted in line with an ACQUITY 1.7 μm particle, 100 × 1 mm^2 C18 UPLC column (Waters), using a gradient of 5–36% B (Buffer A 0.1% formic acid, Buffer B 100% acetonitrile) over 16 min. MS experiments were performed on an Impact QTOF (Bruker) and peptide identification was done by running tandem MS (MS/MS) experiments run in data-dependent acquisition mode. The resulting MS/MS dataset was analyzed using PEAKS7 (PEAKS) and a false discovery rate was set at 1% using a database of purified proteins and known contaminants. HDExaminer Software (Sierra Analytics) was used to automatically calculate the level of deuterium incorporation into each peptide. All peptides were manually inspected for correct charge state and presence of overlapping peptides. Deuteration levels were calculated using the centroid of the experimental isotope clusters, with correction for back exchange generated using the fully deuterated sample. The mass spectrometry proteomics data have been deposited to the ProteomeXchange Consortium via the PRIDE partner repository[31] with the dataset identifier PXD024981.

C. neoformans Sgl1, sequence (J9W473 entry or part of it): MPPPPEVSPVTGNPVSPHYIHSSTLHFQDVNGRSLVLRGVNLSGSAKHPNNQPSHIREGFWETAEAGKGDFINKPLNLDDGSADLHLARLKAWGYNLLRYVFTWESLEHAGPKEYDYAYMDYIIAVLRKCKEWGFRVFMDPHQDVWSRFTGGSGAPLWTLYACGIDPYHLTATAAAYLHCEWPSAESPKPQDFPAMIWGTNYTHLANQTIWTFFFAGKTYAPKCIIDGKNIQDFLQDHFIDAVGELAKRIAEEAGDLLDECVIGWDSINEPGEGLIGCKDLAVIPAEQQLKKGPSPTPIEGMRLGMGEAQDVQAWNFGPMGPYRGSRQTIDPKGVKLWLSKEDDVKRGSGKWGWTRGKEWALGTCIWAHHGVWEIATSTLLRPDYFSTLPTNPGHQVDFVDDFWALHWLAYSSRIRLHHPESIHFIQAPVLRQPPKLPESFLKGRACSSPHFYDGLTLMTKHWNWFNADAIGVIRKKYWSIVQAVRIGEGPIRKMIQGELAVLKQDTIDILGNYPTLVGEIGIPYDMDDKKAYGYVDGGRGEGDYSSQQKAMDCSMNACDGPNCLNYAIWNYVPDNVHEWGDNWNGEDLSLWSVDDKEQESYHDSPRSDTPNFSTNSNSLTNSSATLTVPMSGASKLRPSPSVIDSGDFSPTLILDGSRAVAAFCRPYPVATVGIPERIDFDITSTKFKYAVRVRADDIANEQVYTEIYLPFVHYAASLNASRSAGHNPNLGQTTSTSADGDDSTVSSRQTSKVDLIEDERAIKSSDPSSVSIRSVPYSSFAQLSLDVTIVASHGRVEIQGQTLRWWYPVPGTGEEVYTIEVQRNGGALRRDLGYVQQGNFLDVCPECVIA

Row | Substance | % Deuterium incorporation, Average [%]
1 | AASLNASRSAGHNPNLGQTTSTSADGDD | 99.7
2 | AASLNASRSAGHNPNLGQTTSTSADGDDSTVSSRQTSKVDL | 100.9
3 | AIWNYVPDNVHEWGDN | 23.9
4 | AKRIAEE | 1.8
5 | AKRIAEEAGDL | 9.2
6 | AKRIAEEAGDLLDE | 12.0
7 | ANQTIWTF | -1.6
8 | ARLKAWGYNLL | 2.5
9 | ASKLRPSPSV | 76.0
10 | ASKLRPSPSVIDSGDFSPTL | 47.3
11 | ASKLRPSPSVIDSGDFSPTLIL | 40.9
12 | ATLTVPMSGASKLRPSPSVIDSGDFSPTL | 63.6
13 | AVIPAEQQL | 59.2
14 | AVIPAEQQLKKGPSPTPIEG | 30.1
15 | AVIPAEQQLKKGPSPTPIEGM | 29.8
16 | AVLKQDTID | 23.0
17 | AVLKQDTIDILGNYPTL | 14.1
18 | AVRIGEGPIRKMIQGEL | 20.2
19 | AVRVRADDIANE | 16.0
20 | AYSSRIRLHHPESIHFI | 3.1
21 | CIWAHHGVWE | 1.8
22 | CKDLAVIPAEQQLKKGPSPTPIEG | 25.2

Row | Substance | % Deuterium incorporation, Average [%]
23 | CVIGWDSINEPGEG | 3.6
24 | CVIGWDSINEPGEGLIGCKDL | 4.2
25 | DAIGVIRKKYWSIVQA | 36.2
26 | DDGSADLHL | 35.8
27 | DDKKAYGYVDGGRGEGDYSSQQKAMD | 28.0
28 | DERAIKSSDPSS | 103.7
29 | DITSTKF | 7.2
30 | DITSTKFKYAVRVRA | 3.2
31 | DITSTKFKYAVRVRADD | 4.2
32 | DITSTKFKYAVRVRADDIANE | 9.0
33 | DTIDILGNYPTL | 14.2
34 | DVQAWNFGPMGPYRGSRQTIDPKGVKL | 26.1
35 | DVTIVASHGRVEIQGQT | 25.2
36 | DVTIVASHGRVEIQGQTL | 21.1
37 | DVTIVASHGRVEIQGQTLRWWYPVPGTGE | 20.6
38 | DVTIVASHGRVEIQGQTLRWWYPVPGTGEEV | 19.0
39 | DVTIVASHGRVEIQGQTLRWWYPVPGTGEEVY | 16.6
40 | EIATSTL | 59.2
41 | EIYLPFVHY | 0.7
42 | ERAIKSSDPSS | 103.4
43 | FCRPYPVA | 21.1
44 | FCRPYPVAT | 4.6

Row | Substance | % Deuterium incorporation, Average [%]
45 | FCRPYPVATVGIPERIDF | 5.0
46 | FLKGRACSSPHF | 26.5
47 | FSTLPTNPGHQVDF | 50.7
48 | GQTTSTSADGDDSTVSSRQTSKVDL | 102.4
49 | HCEWPSAESPKPQDF | 58.4
50 | HCEWPSAESPKPQDFPAM | 59.9
51 | HDSPRSDTPNF | 91.2
52 | IATSTLLRPDYFSTLPTNPGHQVDF | 31.3
53 | IDAVGEL | 5.7
54 | IDILGNYPTL | 20.4
55 | IDSGDFSPTL | 36.2
56 | IDSGDFSPTLIL | 26.0
57 | IEDERAIKSSDPSS | 101.2
58 | IEDERAIKSSDPSSV | 101.6
59 | IEDERAIKSSDPSSVS | 106.2
60 | IEDERAIKSSDPSSVSIRSVPYSSF | 100.4
61 | IEVQRNGGAL | 28.7
62 | IEVQRNGGALRRDLG | 58.5
63 | IGCKDLAVIPAEQQLKKGPSPTPIEG | 24.8
64 | IGWDSINEPGEGL | 4.5
65 | IGWDSINEPGEGLIGCKDL | 4.5
66 | IIDGKNIQD | 14.1

Row | Substance | % Deuterium incorporation, Average [%]
67 | IIDGKNIQDFLQDHF | 7.4
68 | IKSSDPSS | 106.2
69 | IKSSDPSSVSIRSVPYSSF | 106.5
70 | ILDGSRAVAA | 26.4
71 | ILDGSRAVAAF | 24.1
72 | ILGNYPTL | 27.3
73 | INKPLNL | 46.8
74 | INKPLNLDDGSADL | 26.9
75 | INKPLNLDDGSADLHL | 21.9
76 | IQAPVLRQPPKLPES | 35.7
77 | IQAPVLRQPPKLPESF | 36.0
78 | IQAPVLRQPPKLPESFL | 31.8
79 | IRKKYWSIVQAV | 45.4
80 | IYLPFVHY | 2.9
81 | IYLPFVHYAASL | 21.4
82 | KDLAVIPAEQQLKKGPSPTPIEG | 24.0
83 | KGRACSSPHFYDGLTL | 28.7
84 | KKAYGYVDGGRGEGDYSSQQKAMD | 29.0
85 | KKGPSPTPIEG | 6.7
86 | KQDTIDILGNYPTL | 22.4
87 | KYAVRVRADDIANE | 12.4
88 | LAVIPAEQQLKKGPSPTPIEG | 28.2

Row | Substance | % Deuterium incorporation, Average [%]
89 | LAVIPAEQQLKKGPSPTPIEGM | 28.2
90 | LAYSSRIRLHHPESIHF | 4.9
91 | LDVCPEC | 80.8
92 | LKKGPSPTPIEG | 11.2
93 | LRKCKEWGF | -8.6
94 | LRPDYFSTLPTNPGHQVDF | 37.3
95 | LRWWYPVPGTGE | 31.2
96 | LRWWYPVPGTGEEV | 23.5
97 | LRWWYPVPGTGEEVY | 19.1
98 | LSGSAKHPNNQPSHIREGF | 54.3
99 | LTVPMSGASKLRPSPSV | 86.0
100 | LTVPMSGASKLRPSPSVIDSGD | 65.2
101 | LTVPMSGASKLRPSPSVIDSGDFSPTL | 59.4
102 | LVLRGVN | 5.8
103 | LVLRGVNL | 7.5
104 | LVLRGVNLSGSAKHPNNQPSH | 28.6
105 | LVLRGVNLSGSAKHPNNQPSHIREGF | 33.7
106 | MRLGMGEAQ | 9.3
107 | MRLGMGEAQDVQA | 6.8
108 | MRLGMGEAQDVQAWNFGPMGPYRGSRQTIDPKGVKL | 19.3
109 | MTKHWNWFNA | 29.9
110 | NACDGPNCLN | 19.4

Row | Substance | % Deuterium incorporation, Average [%]
111 | NACDGPNCLNY | 17.8
112 | NADAIGVIRKKYWSIVQ | 33.7
113 | NASRSAGHNPNLGQTTSTSADGDD | 102.3
114 | NASRSAGHNPNLGQTTSTSADGDDST | 100.5
115 | NASRSAGHNPNLGQTTSTSADGDDSTVSSRQTSKVDL | 102.1
116 | NASRSAGHNPNLGQTTSTSADGDDSTVSSRQTSKVDLIE | 100.2
117 | NYAIWNYVPDNVHE | 17.1
118 | NYVPDNVHE | 30.1
119 | NYVPDNVHEWGDN | 41.1
120 | NYVPDNVHEWGDNW | 32.4
121 | PVLRQPPKLPES | 47.4
122 | PVLRQPPKLPESF | 50.6
123 | PVLRQPPKLPESFL | 40.7
124 | PVTGNPVSPHYIHSSTL | 36.8
125 | PVTGNPVSPHYIHSSTLHF | 30.4
126 | QDVNGRS | 17.0
127 | QLKKGPSPTPIEG | 10.2
128 | QQLKKGPSPTPIEG | 10.8
129 | RADDIANE | 33.8
130 | RAIKSSDPSS | 103.0
131 | RAIKSSDPSSV | 101.5
132 | RAIKSSDPSSVS | 104.6
